Residue numbers refer to the chain shown, from its start. In names and notes the source's numbering stands.
Legend:
[1] = biological target: T1, ParAF (F-plasmid (E. coli)) (UniProt P62556)
T1 sequence: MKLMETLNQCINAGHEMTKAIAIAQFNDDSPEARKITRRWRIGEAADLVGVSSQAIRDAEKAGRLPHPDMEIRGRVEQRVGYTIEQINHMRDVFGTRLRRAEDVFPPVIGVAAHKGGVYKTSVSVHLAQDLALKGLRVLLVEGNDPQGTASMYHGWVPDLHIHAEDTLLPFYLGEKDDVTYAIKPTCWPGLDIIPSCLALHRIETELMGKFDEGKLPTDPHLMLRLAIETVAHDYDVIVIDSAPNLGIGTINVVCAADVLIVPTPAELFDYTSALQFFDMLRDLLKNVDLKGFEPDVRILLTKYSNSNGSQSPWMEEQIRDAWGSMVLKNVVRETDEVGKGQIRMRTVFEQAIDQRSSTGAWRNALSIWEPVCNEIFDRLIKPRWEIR

[2] = biological target: T1, ParAF (F-plasmid (E. coli)); remark: listed apart in the source
EcoRI (Escherichia coli) = EcoRI (Escherichia coli) (UniProt P00642); settings: cited from earlier work
ParAF-eGFP [3] = biological target: T2, ParAF-eGFP (F-plasmid (E. coli), UniProt P62556 1-388); experiment: TIRF microscopy of fluorescent proteins on an nsDNA carpet; ParAF-eGFP (1 uM) and labelled ParBF variant (2 uM, or 10 uM for the 1-42-mCherry fusions) preincubated 10 min at room temperature with 1 mM ATPgammaS, infused over an nsDNA carpet, then washed with buffer containing ATPgammaS; no parSF, no C-nucleotide; 300 mM K-glutamate TIRFM buffer pH 7.5; apparent rate constants; settings: both partners purified
T2 construct: ParA ATPase of the F plasmid (ParAF, also called SopA); SGGG linker between ParAF and eGFP; concentrations and ratios are per monomer; also called SopA; source: E. coli BL21 DE3 AI, purified (HisTrap, Mono Q, S200 size exclusion)
T2 sequence (looked up): T1 sequence

ParAF-eGFP [4] = biological target: T2, ParAF-eGFP; experiment: TIRF microscopy of fluorescent proteins on an nsDNA carpet; as a1, but the wash buffer contained ATPgammaS and 10 uM ParBF^1-42-mCherry or ParBF^(1-42 R36A)-mCherry; apparent rate constants; settings: both partners purified
ParAF-eGFP [5] = biological target: T2, ParAF-eGFP; experiment: TIRF microscopy of fluorescent proteins on an nsDNA carpet; ParAF-eGFP (1 uM) and labelled ParBF variant (2 uM, or 10 uM for the 1-42-mCherry fusions) preincubated 10 min at room temperature with 1 mM ATPgammaS, infused over an nsDNA carpet, then washed with buffer containing ATPgammaS; no parSF, no C-nucleotide; 300 mM K-glutamate TIRFM buffer pH 7.5; apparent rate constants; settings: both partners purified; remark: listed apart in the source
[6] = substrate: Nc1ccn([C@@H]2O[C@H](COP(=O)(O)OP(=O)(O)OP(=O)(O)O)[C@@H](O)[C@H]2O)c(=O)n1; experiment: phosphate release, MESG/purine nucleoside phosphorylase (EnzChek), initial rates; format: biochemical, Escherichia coli; settings: no parSF DNA, 0.84 μM ParBF, 2 mM MgCl2, 100 mM NaCl, pH 7.5
[7] = biological target: the molecule itself; experiment: FRET or BRET; ParBF labelled with Alexa 488 or Alexa 594 mixed at equal concentrations, FRET efficiency in a plate reader; monomer to dimer; apparent KD
ParAF-eGFP [8] = biological target: T2, ParAF-eGFP; experiment: TIRF microscopy of fluorescent proteins on an nsDNA carpet; as a5, with CTP (2 mM) and the 24 bp parSF fragment (1.1 uM); apparent rate constants; settings: both partners purified
ParAF-eGFP [9] = biological target: T2, ParAF-eGFP; experiment: TIRF microscopy of fluorescent proteins on an nsDNA carpet; as a1, with ATPgammaS (1 mM) and CTP (2 mM), no parSF; wash with ATPgammaS and CTP; apparent rate constants; settings: both partners purified
ParAF-eGFP [10] = biological target: T2, ParAF-eGFP; experiment: TIRF microscopy of fluorescent proteins on an nsDNA carpet; as a6, with CDP instead of CTP, with the 24 bp parSF fragment (1.1 uM); apparent rate constants; settings: both partners purified
ParAF-eGFP [11] = biological target: T2, ParAF-eGFP; experiment: TIRF microscopy of fluorescent proteins on an nsDNA carpet; as a1, with the 24 bp parSF DNA fragment (1.1 uM) in the sample; apparent rate constants; settings: both partners purified

## ParBF^1-42-mCherry-EcoRI^E111Q
[1]
  ParAF-ATPase stimulation against ParBF^1-42-mCherry-EcoRI^E111Q concentration: K (half): 0.15 µM
[2]
  ParAF-ATPase stimulation against ParBF^1-42-mCherry-EcoRI^E111Q concentration: KA (apparent total concentration for half-maximum stimulation); pBR322 nsDNA + EcoRI DNA fragment: 0.16 µM
  ParAF-ATPase stimulation against ParBF^1-42-mCherry-EcoRI^E111Q concentration: KA (apparent total concentration for half-maximum stimulation); pBR322 nsDNA + Scram DNA: 0.16 µM

## EcoRI (from UniProt P00642)
EcoRI (Escherichia coli)
  Kd: < 0.02 nM

B1: ParBF^1-42-mCherry (domain or fragment, F-plasmid (E. coli))
chain: MKRAPVIPKHTLNTQPVEDTSLSTPAAPMVDSLIARVGVMAR
notes: ParBF^1-42 fused to the N-terminus of mCherry through an SGGG linker; His6 at the C-terminus of the fusion; Monomer by gel filtration; also called monomeric ParBF^1-42-mCherry; source: E. coli BL21 DE3 AI, purified (HisTrap after lysis in 6 M guanidinium chloride, S200 size exclusion); not shown: mCherry, C-terminal, kept
ParAF-eGFP [3]
  koff: 0.105 s⁻¹
  stoichiometry N: 1.27 ParBF per ParAF (A:B ratio, monomers)
[2]
  ParAF-ATPase stimulation against ParBF^1-42 concentration: KA (apparent total concentration for half-maximum stimulation); pBR322 nsDNA: 1.2 µM
ParAF-eGFP [4]
  apparent koff from the nsDNA carpet together with ParAF, ParBF^1-42-mCherry in the wash (ParBF signal): 0.0148 s⁻¹

B2: ParBF^(1-42 R36A)-mCherry (domain or fragment, F-plasmid (E. coli))
chain: B1 chain with R36A
notes: SGGG linker between ParBF^(1-42 R36A) and mCherry; His6 at the C-terminus of the fusion; source: E. coli BL21 DE3 AI, purified (HisTrap after lysis in 6 M guanidinium chloride, S200 size exclusion); not shown: mCherry, C-terminal, kept
ParAF-eGFP [3]
  koff: 0.867 s⁻¹
ParAF-eGFP [5]
  steady-state density on the DNA carpet relative to ParBF^1-42-mCherry: < 10%
[2]
  ParAF-ATPase stimulation against ParBF^(1-42 R36A) concentration: KA (apparent total concentration for half-maximum stimulation); pBR322 nsDNA: 108 µM
ParAF-eGFP [4]
  apparent koff from the nsDNA carpet together with ParAF, ParBF^(1-42 R36A)-mCherry in the wash (ParBF signal): 0.03 s⁻¹
  stoichiometry N: 0.92 ParBF per ParAF (A:B ratio, monomers)

B3: ParBF (Escherichia coli K-12) (protein)
chain: MKRAPVIPKHTLNTQPVEDTSLSTPAAPMVDSLIARVGVMARGNAITLPVCGRDVKFTLEVLRGDSVEKTSRVWSGNERDQELLTEDALDDLIPSFLLTGQQTPAFGRRVSGVIEIADGSRRRKAAALTESDYRVLVGELDDEQMAALSRLGNDYRPTSAYERGQRYASRLQNEFAGNISALADAENISRKIITRCINTAKLPKSVVALFSHPGELSARSGDALQKAFTDKEELLKQQASNLHEQKKAGVIFEAEEVITLLTSVLKTSSASRTSLSSRHQFAPGATVLYKGDKMVLNLDRSRVPTECIEKIEAILKELEKPAP
notes: full-length, C-terminal hexa-histidine tag kept, expressed in E. coli BL21 DE3 AI (plasmid pX8); dimer
[6]
  Km: ~8 µM
  kcat: ~0.00389 s⁻¹

B4: ParBF (full-length), ParBF-Alexa647 (natural protein, F-plasmid (E. coli), UniProt P62558 1-323, looked up)
chain: B3 chain
modifications: Alexa Fluor 647 C2 maleimide label (DNA-carpet TIRFM assays); Alexa 488 or Alexa 594 label (FRET dimerisation assay)
notes: ParB of the F plasmid (ParBF, also called SopB); One molecule for the same construct with different dyes; ATPase and magnetic-tweezers results are printed for 'ParBF' without a dye; concentrations and ratios are per monomer; also called Alexa647-ParBF; WT ParBF; source: E. coli BL21 DE3 AI, purified (HisTrap, Mono S, S200 size exclusion)
[7]
  Kd: ~18.5 nM
ParAF-eGFP [3]
  apparent koff of the ParAF-ParBF complex from the nsDNA carpet (ParBF signal): 0.0148 s⁻¹
  stoichiometry N: 1.1 ParBF per ParAF (A:B ratio, monomers)
ParAF-eGFP [8]
  apparent koff of the ParAF-ParBF complex from the nsDNA carpet (ParBF signal), with CTP and parSF: 0.0138 s⁻¹
  stoichiometry N: 2.16 ParBF per ParAF (A:B ratio, monomers)
ParAF-eGFP [9]
  apparent koff of the ParAF-ParBF complex from the nsDNA carpet (ParBF signal), with CTP: 0.0108 s⁻¹
  stoichiometry N: 2.16 ParBF per ParAF (A:B ratio, monomers)
ParAF-eGFP [10]
  apparent koff of the ParAF-ParBF complex from the nsDNA carpet (ParBF signal), with CDP and parSF: 0.00883 s⁻¹
  stoichiometry N: 2.53 ParBF per ParAF (A:B ratio, monomers)
ParAF-eGFP [11]
  apparent koff of the ParAF-ParBF complex from the nsDNA carpet (ParBF signal), with parSF: 0.0137 s⁻¹
  stoichiometry N: 2.17 ParBF per ParAF (A:B ratio, monomers)

B5: ParBF^R121A (natural protein, F-plasmid (E. coli), UniProt P62558 1-323, looked up)
chain: B3 chain with R121A
modifications: Alexa Fluor 647 C2 maleimide label (fluorescently labeled ParBF^R121A)
notes: ParB of the F plasmid (ParBF, SopB) with R121A in the Box II region of the CTPase domain; ATPase results are printed without a dye; also called Box II mutant ParBF^R121A; source: E. coli BL21 DE3 AI, purified (HisTrap, Mono S, S200 size exclusion)
ParAF-eGFP [3]
  apparent koff of the ParAF-ParBF^R121A complex from the nsDNA carpet (ParBF signal): 0.013 s⁻¹
  stoichiometry N: 0.99 ParBF per ParAF (A:B ratio, monomers)
ParAF-eGFP [11]
  apparent koff of the ParAF-ParBF^R121A complex from the nsDNA carpet (ParBF signal), with parSF: 0.013 s⁻¹
  stoichiometry N: 1.12 ParBF per ParAF (A:B ratio, monomers)
